{
  "source": "paper PMC3050670",
  "key": {"[1]": {"biological_target": "HIV-1 CA N21C/A22C (HIV-1 (human immunodeficiency virus type 1))", "assay": "cross-linking"}, "[2]": {"biological_target": "HIV-1 CA A14C/E45C/W184A/M185A (HIV-1 (human immunodeficiency virus type 1))", "assay": "SEC"}, "[3]": {"biological_target": "HIV-1 CA A42C/T54C (HIV-1 (human immunodeficiency virus type 1))", "assay": "cross-linking"}, "[4]": {"biological_target": "HIV-1 CA A14C/E45C (HIV-1 (human immunodeficiency virus type 1))", "assay": "cross-linking"}},
  "data": [
    {"substance": "HIV-1 CA N21C/A22C (natural protein)", "values": [
      {"measurement": "stoichiometry N", "setting": "[1]", "value": 5}
    ]},
    {"substance": "HIV-1 CA A14C/E45C/W184A/M185A (natural protein)", "values": [
      {"measurement": "stoichiometry N", "setting": "[2]", "value": 6}
    ]},
    {"substance": "HIV-1 CA A42C/T54C (natural protein)", "values": [
      {"measurement": "crosslinked 6-mer band, share of the total protein", "setting": "[3]", "value": 30, "unit": "%"},
      {"measurement": "maximal crosslinking", "setting": "[3]", "value": 50, "unit": "%"},
      {"measurement": "stoichiometry N", "setting": "[3]", "value": 6}
    ]},
    {"substance": "HIV-1 CA A14C/E45C (natural protein)", "values": [
      {"measurement": "crosslinking efficiency", "setting": "[4]", "value": "> 90", "unit": "%"},
      {"measurement": "stoichiometry N", "setting": "[4]", "value": 6}
    ]}
  ]
}
